System: Saccharomyces cerevisiae
Assay: transcriptional activation domain activity (GFP:mCherry ratio, weighted mean of sorted bins, harmonized to initial dataset scale) (arbitrary fluorescence ratio units); higher = stronger transcriptional activation
Conditions: beta-estradiol 1 µM; induction time 4 h
Method in brief: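 Yeast diploids with a GFP reporter received barcoded protein tiles, fused to an estradiol-inducible synthetic transcription factor, at the URA3 locus. Cultures were diluted 1:5 into SC holding 1 uM beta-estradiol, incubated 4 hours at 30 °C, sorted into 8 bins on GFP:mCherry ratio, and sequenced for barcodes, with tiles under 50 reads discarded. Activation activity values come from the read-weighted mean of bin median fluorescence, averaged across barcodes and linearly placed on the initial dataset scale.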

Row | Sequence | transcriptional activation domain activity
1 | LNWYWLTTTMYFLYGESMLFYFKHIVLVGSVLTPLATHHRFISFTLYIFGFIF | 42000
2 | RSGYGSRDLYEYDLIEVRRTQVETALILTGLISLMKTNRSRERYVHTEHVTGT | 39500
3 | DAPEKEPEAEAAKPKGRGGRPKKVVPPAAAAPAPKEKEEPKPKAAAGRKRKAP | 32100
4 | FTKVIKLVSHFVLYFINICFILITIFFGYFYNLIKFYILLTLYLVSLRTLLSL | 47700
5 | HSLSTIGIDVSHWEPFPLASMQRALAYELHMFCPTLRTVIVWLRRYRYMWRWS | 45200
6 | FVYLILTILPCLDHRCPYRTPMSSIWWYCWHTSLGFFALCARWLLNLLHGILV | 50200
7 | EEGAATDGTADANGKPKKAPRKRKSQAGATTEDGQAPKRRKKKSTDAAGGAAA | 31300
8 | WLFCFICYPLPLHPISYQIAPPFYSIFFVILLTIVFFLLLFLFVSSFLYLRLG | 70000
9 | YGALGDNTVTLRRPDDSDIVVLFDDMVVHAWIKMLIVAKLICCVILRRTAALG | 46500
10 | MLHGSGAVFGSGFLSLVSLVLWLISYYCCTWTWKGIFILSICFFNTCIYIECI | 49800
11 | ESAKDKENAKGRKEAEKKKNKEEKERVKKESRERERESRRSAEGRKRPALASL | 25400
12 | EKVGTLWRARDVNERRQAKASGAAGGAAKATKPAGAAAASGAKPKATGAAGAA | 21900
13 | DLPVRLVELPNLLVTDIQQNAYLLDSALRVKLDAKGRAFLDSILLRVLQWLWT | 48200
14 | MFACPYLGLLCLSVTSMPYPFSQLFQPFISPRFCPECAPFSFFLHSFLGFHLT | 52200
15 | PLVVTALCVAPHEFFMKNWVSCFEVGLVKLKEKPYRMIVMNGMMRLIWTYLYR | 52800
16 | MVQNWEFFVFFFSFFIFSFCEVYMCAVCGLWCGSPGKLLGLLFLVLLCSLFFF | 40300
17 | YLPTLPDAFPFGADIGSLDAISNIPWMSWNPVMAHFSFPWFMDELEMPLELPD | 102000

Row | Sequence | transcriptional activation domain activity
18 | MFKSFLGHSDQNTFFFFVLLLLLLCCHISLRAFFIFLSWIQLLYVLQWDECDK | 47800
19 | PYIALIVLDVILIKLGSGRHIEYIQYVLTRATVKETEVLDFYAHIIYTTTLLI | 28800
20 | MAAGFFFFFFLLSFPLFLSFFFCFPFFFSLPSGISFCLPFAPGVVSSFPFPTR | 53800
21 | IVVYGANGGNLGENCNREFSERCVPVFRARATVFAELTWLILVSAWEFKSIRR | 51000
22 | GREGKKHRDRDGSSRGSSSKEKRRERSDGKKHREKSEGGKHREGRSREGRRED | 44700
23 | PFGFLTDEVKNSYLRCSYKWSFHHIPNLLIAIRERRLDPLLIWAMLAITVRFS | 79500
24 | VLLQNLCRMVITRLGDWTLFKAFVLCCCLYRLSFFHDLFLFLYTFSFPLLCFT | 57100
25 | MAGDDEEGRDADGEPDNAATPAKRQRVSRACDQCRAARERCDGKPQCHPCVSQ | 34100
26 | KFCAITLAGTWGKVVLYSLAMTRVVSYCYNIYYMDSVFSRTIRPGIGICFTSL | 67100
27 | MEVRQRKPGSGRPKGSKNKAKPPGTEPRPRKPGSGRPKGSKNKTTLAAAAAAA | 30900
28 | CPVHTTLHVPHFLIWSSHILFFFLVFFFVFSLFPFPLVCLVAFFLVLSALPPS | 42700
29 | RLCYERFILCLICLPILYLPLVLILGIFIALSLTYIIFISFDPIISSMWYLAL | 68400
30 | HIHCFVALFLVMPFFVLVFIVFLGGCNYCLQKKLVLPSLLLTFVIYGGGRLGF | 37900
31 | AGIRLLERAWYWLHGRYRFTAGYVAELLLNGFKRPHGLLNAYVHHFTNFNITD | 72000
32 | YLPYIVFPLTPQLSGPLCELYPSRGNLYDIFLHSILIMMQLPFILSVPFWLLF | 45500
33 | EARTLVMHAQQGFSFHFGCQMSLSGMMLLSYILLLPPIFTGYQLLWLLWIVFP | 61400
34 | FFPSFSFSFSSFSFLLFISSSYSFFLFFPSSYSFFLFFFFYLIPYLLDFFPFL | 50500

Reference: the supplement of paper PMC12636428
